Laboratory results: US20200155602A1 (IMMATICS BIOTECHNOLOGIES, published 2020)

Target: T1, HLA-A*02:01 (human)
T1 construct: Peptide-receptive HLA-A*02:01 monomer obtained by UV cleavage of a UV-sensitive ligand; captured on streptavidin plates; also called peptide-receptive MHC molecules; MHC class I
Assay: UV-ligand exchange, anti-b2m ELISA; grade of peptide exchange yield (>10% = +; >20% = ++; >50 = +++; >75% = ++++)
Source text: Candidate peptides for T cell based therapies according to the present invention were further tested for their MHC binding capacity (affinity). The individual peptide-MHC complexes were produced by UV-ligand exchange, where a UV-sensitive peptide is cleaved upon UV-irradiation, and exchanged with the peptide of interest as analyzed. Only peptide candidates that can effectively bind and stabilize the peptide-receptive MHC molecules prevent dissociation of the MHC complexes. To determine the yield of the exchange reaction, an ELISA was performed based on the detection of the light chain (β2m) of stabilized MHC complexes. The assay was performed as generally described in Rodenko et al. (Rodenko et al., 2006).
96 well MAXISorp plates (NUNC) were coated over night with 2 ug/ml streptavidin in PBS at room temperature, washed 4× and blocked for 1 h at 37° C. in 2% BSA containing blocking buffer. Refolded HLA-A*02:01/MLA-001 monomers served as standards, covering the range of 15-500 ng/ml. Peptide-MHC monomers of the UV-exchange reaction were diluted 100-fold in blocking buffer. Samples were incubated for 1 h at 37° C., washed four times, incubated with 2 ug/ml HRP conjugated anti-β2m for 1 h at 37° C., washed again and detected with TMB solution that is stopped with […]. Absorption was measured at 450 nm. […]

SLTSFLISL was tested, and the peptide exchange yield was 50 to 75%.
